US20050271676A1, “Inducing cellular immune responses to human immunodeficiency virus-1 using peptide and nucleic acid compositions” (Epimmune Inc., priority 1993, published 2005)
No end group written: not given here.

Assays:
[1] = target: HLA-A*0201 (Homo sapiens, UniProt P04439, D140Y/D185E/D98H/E176V/E277Q/G131W/G231S/I119V/I121R/I166T/I218V/L300P/L318F/N151K/N90K/P208A/P217A/Q86G/Q94H/R138H/R169H/T345S); assay: purified HLA class I binding assay, A*0201; details: unit not given; for A*0201 (binding information): Table VIII
[2] = target: T1, HLA-A*0301 (Homo sapiens, UniProt P04439); assay: purified HLA class I binding assay, A*0301; details: for A0301 (HIV A03 Motif Peptides with Binding Information): HIV POL-derived A03 motif peptides, binding value for purified HLA-A*0301, unit not given
T1 construct: endogenous in cells; host or cells: GM3107

[3] = target: HLA-A*1101 (Homo sapiens, UniProt P04439, A114D/D185E/E176A/F33Y/L180Q/S129P/T187R); assay: purified HLA class I binding assay, A*1101
[4] = target: T2, HLA-B*0702 (Homo sapiens, UniProt P01889); assay: purified HLA class I binding assay, B*0702; details: for B*0702 binding (HIV B07 Super Motif Peptides with Binding Information): purified HLA-B*0702, binding value without unit; for B*0702 (binding information): HIV B07 supermotif peptides, binding value for purified HLA-B*0702, unit not given
T2 construct: endogenous in cells; host or cells: GM3107

[5] = HIV A03 motif peptides, Table XVI, binding value unit not given
[6] = Table IX, HIV A03 super motif peptides, binding value, unit not given
[7] = Table XVI, binding value for purified HLA-A*0301, unit not given
[8] = HIV A11 motif peptides, Table XVII, unit not given
[9] = Table XVII, HIV A11 motif peptides, binding value for A*1101, printed without unit
[10] = Table XVII, HIV A11 motif peptides, binding value A*1101, unit not given
[11] = HIV A03 supermotif peptides, binding value, no unit given
[12] = Table XVI, HIV POL-derived peptides, unit not given
[13] = HIV A03 supermotif peptides, Table IX, unit not given
[14] = binding value to purified HLA-A*1101 in Table XVII, unit not given
[15] = Table XVII, HIV A11 motif peptides, binding value for purified HLA-A*1101, unit not given

KAYDTEVIINV
A*0201 (binding information) ([1]; HIV A02 super motif peptides): 0.0013

KIEELRQIIL
A*0201 (binding information) ([1]; HIV A02 super motif peptides): 0.0001

KIEELRQIILL
A*0201 (binding information) ([1]; HIV A02 supermotif peptides): 0.0002

KIWPSIIKGR
A0301 (binding information) [2, 5]: 0.0770

KLVDFRELNK
A*0301 binding information [2, 6]: 0.5100
A0301 (binding information, HIV A03 motif peptides) [2, 7]: 0.5100
A*1101 (binding information) [3, 8]: 0.0900
A*1101 (binding information) [3, 6]: 0.0900

KPCVKLTPLC
B*0702 binding (HIV B07 Super Motif Peptides with Binding Information) [4]: 0.0004

KTKGIIRGSII
A*1101 (binding information) [3, 9]: 0.0001

KVKQWPLTEE
A0301 (HIV A03 Motif Peptides with Binding Information) [2]: 0.0750
A*1101 (binding information) [3, 10]: 0.0330

KVYLAWVPAII
A0301 binding ([2]; HIV A03 motif peptides, Table XVI, column A0301, unit not given): 8.6000

KVYLAWVPAIIK
A*0301 binding information [2, 11]: 8.6000
A*1101 (binding information) [3, 11]: 2.3000

LGIIQAQVDK
A0301 (binding information, HIV A03 motif peptides) [2, 12]: 0.0007

LGIPIIPAGLK
A*1101 (binding information) [3, 10]: 0.0150

LLQLIVWGIK
A*0301 binding information [2, 13]: 0.0055
A*1101 (binding information) [3, 13]: 0.0110

LPEKDSWTV
B*0702 (binding information) [4]: 0.0001

LPGRWKPKM
B*0702 (binding information) [4]: 0.0038

LPQGWKGSPA
B*0702 (binding information) [4]: 0.0120

LTEDRWNKPQ
A0301 (binding information) ([2]; HIV A03 motif peptides, Table XVI, unit not given): 0.0390
A*1101 (binding information) [3, 9]: 0.0130

LVITFYWGL
A*0201 (HIV A02 Super Motif Peptides with Binding Information) ([1]; binding value for purified HLA-A*0201 as printed in Table VIII): 0.0031

LYSAGIRK
A*1101 (HIV A11 Motif Peptides with Binding Information) ([3]; binding to purified HLA-A*1101, unit not given): 0.0054

LYSAGIRKYL
A*0201 (binding information) ([1]; HIV A02 supermotif peptides): 0.0002

MGYELIIPDK
A0301 (binding information, HIV A03 motif peptides) [2, 7]: 0.0640

MTKILIEPFR
A*1101 (binding information) [3, 10]: 0.0160

MVIIQAISPR
A0301 (binding information) [2, 5]: 0.1800
A*1101 binding ([3]; HIV A11 motif peptides (GAG), Table XVII, unit not given): 0.0670

NPDIVIYQYM
B*0702 (binding information) [4]: 0.0005

NPQSQGVVES
B*0702 (binding information) [4]: 0.0001

NTPVPAIK
A*1101 (HIV A11 Motif Peptides with Binding Information) [3, 14]: 0.0003

PCIMDGPKVK
A*1101 (binding information) [3, 10]: 0.0001

QIYQEPPKNLK
A*0301 binding information [2, 11]: 0.2800
A*1101 (binding information) [3, 11]: 0.2900

QIYQIEPFKNLK
A0301 (binding information, HIV A03 motif peptides) [2, 12]: 0.2800

QLDCTIILEGK
A0301 (binding information, HIV A03 motif peptides) [2, 7]: 0.0010
A*1101 (binding information) [3, 10]: 0.0003

QPDKSESEIV
B*0702 (binding information) [4]: 0.0002

QVRDQAEIILK
A0301 (HIV A03 Motif Peptides with Binding Information) [2]: 0.0089

RIVELLGRR [1273.04]
IC50 [2]: 200 nM
IC50 [3]: 600 nM

SDLEIGQIIR
A*1101 (binding information) [3, 10]: 0.0001

SPRTLNAWYK
B*0702 binding (HIV B07 Super Motif Peptides with Binding Information) [4]: 0.0076

SPTRKELQVW
B*0702 (binding information) [4]: 0.0025

TACQGVGGPG
A0301 (binding information) [2, 5]: 0.0001
A*1101 (binding information) [3, 8]: 0.0001

TAVQMAVFIII
A0301 (binding information, HIV A03 motif peptides) [2, 7]: 0.0004
A*1101 (binding information) [3, 10]: 0.0110

TPGIRYQYNV
B*0702 (binding information) [4]: 0.0004

TPPLVKLWYQ
B*0702 (binding information) [4]: 0.0001

TTPDKKIIQK
A0301 (HIV A03 Motif Peptides with Binding Information) [2]: 0.0002

TYQCTIIGIK
A*1101 (binding information) [3, 15]: 0.0460

VASCDKCQLK
A0301 (HIV A03 Motif Peptides with Binding Information) [2]: 0.0004
A*0301 binding information [2, 6]: 0.0004
A*1101 (binding information) [3, 6]: 0.0004
A*1101 (binding information) [3, 10]: 0.0004

VAVIIVASGY
A0301 (binding information, HIV A03 motif peptides) [2, 7]: 0.0004
A*1101 (binding information) [3, 10]: 0.0001

VPIDPNPQEV
B*0702 binding (HIV B07 Super Motif Peptides with Binding Information) [4]: 0.0008

VPLDKDFRKY
B*0702 (binding information) [4]: 0.0002

VPRRKAKII
B*0702 (binding information) [4]: 0.4800

VPVWKEATTT
B*0702 binding (HIV B07 Super Motif Peptides with Binding Information) [4]: 0.0022

VTVYYGVPVW
A0301 (binding information, HIV A03 motif peptides) ([2]; purified HLA-A*0301 binding value as printed in Table XVI, unit not given): 0.8600
A*1101 (binding information) [3, 15]: 4.1000

WTVQVIPLPEK
A0301 (binding information) ([2]; HIV A03 motif peptides, binding value to HLA-A*0301 as printed, no unit given): 0.0011

WTYQIYQEPF
A0301 (binding information, HIV A03 motif peptides) [2, 12]: 0.9200
A*1101 (HIV A11 Motif Peptides with Binding Information) [3, 14]: 0.0540

YVDRIFYKTLR
A*0301 binding information [2, 13]: 0.0003
A*1101 (binding information) [3, 13]: 0.0006
